According to publication doi:10.1101/2024.08.19.608718, “The structural basis for RNA slicing by human Argonaute2”:

Molecular target: HsAGO2 D669A (catalytically dead) (Homo sapiens, UniProt Q9UKV8 1-859, D669A)
Experiment: cryo-EM (3.3 A); 1 mM Mg2+; one Mg modelled; Dissociation filter binding: 17.6 mM HEPES pH 7.4, 97.8 mM KOAc, 0.978 mM Mg(OAc)2, 5 mM DTT, BSA, yeast tRNA, 0.01% IGEPAL, 1.6% glycerol, 37 C; cryo-EM complex: 50 mM Tris pH 7.5, 150 mM NaCl, 1 mM MgCl2, 2% glycerol, 0.5 mM TCEP (target bound at 25 C in 10% glycerol)
Conditions: protein: recombinant; tags: 3xFLAG-SUMOEu1, cleaved off by SENPEuB; label: biotin on target 3' end (click, diazo biotin azide); guide-target paired from g2 to g22; target overhangs 5' 3 nt and 3' 3 nt; g1 not paired

HsAGO2 D669A (catalytically dead), sequence (Q9UKV8 whole entry D669A): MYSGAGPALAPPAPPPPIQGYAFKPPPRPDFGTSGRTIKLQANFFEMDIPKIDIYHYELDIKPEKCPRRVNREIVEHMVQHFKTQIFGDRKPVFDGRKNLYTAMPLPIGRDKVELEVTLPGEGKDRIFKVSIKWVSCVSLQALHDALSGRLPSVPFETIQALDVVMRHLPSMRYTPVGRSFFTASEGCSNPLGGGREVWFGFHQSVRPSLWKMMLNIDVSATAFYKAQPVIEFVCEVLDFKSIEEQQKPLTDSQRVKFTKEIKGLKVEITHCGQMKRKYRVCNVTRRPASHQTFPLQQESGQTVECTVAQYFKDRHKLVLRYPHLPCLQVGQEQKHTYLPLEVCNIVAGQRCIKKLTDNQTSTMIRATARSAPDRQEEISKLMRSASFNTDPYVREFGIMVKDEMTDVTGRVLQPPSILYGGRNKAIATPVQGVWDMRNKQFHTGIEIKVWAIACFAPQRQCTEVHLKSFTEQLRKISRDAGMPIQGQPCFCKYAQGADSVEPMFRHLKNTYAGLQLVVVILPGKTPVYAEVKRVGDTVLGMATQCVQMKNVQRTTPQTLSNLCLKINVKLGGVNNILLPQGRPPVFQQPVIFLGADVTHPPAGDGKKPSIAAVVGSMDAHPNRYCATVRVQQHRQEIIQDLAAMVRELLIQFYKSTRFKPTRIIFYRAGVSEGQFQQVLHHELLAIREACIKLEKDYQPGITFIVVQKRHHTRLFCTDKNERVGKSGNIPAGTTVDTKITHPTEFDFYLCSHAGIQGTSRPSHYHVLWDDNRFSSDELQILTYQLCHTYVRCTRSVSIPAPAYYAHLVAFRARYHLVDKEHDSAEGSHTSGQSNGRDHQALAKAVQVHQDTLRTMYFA

B1: miR-7 guide (22 nt) / fully complementary target (dsRNA)
RNA 1: UGGAAGACUAGUGAUUUUGUUG
RNA 2: UUUCAACAAAAUCACUAGUCUUCCAAAU
modifications: guide 5'-phosphate; target nt 1-3 (U) and 26-27 (A) 2'-O-methyl; 3'-terminal nt is deoxyuridine with 5-octadiynyl
  binding result: binds
